Tests used:
[1] = system: C8161 metastatic melanoma cells; experiment: C8161 lung colonization (metastasis) model in Nude mice; format: in vivo; conditions: for lung colonization: IP 3D1 vs IgG control
Procedure: Lung tumor burden was determined as the mean percentage of lung occupied by C8161 melanoma cell colonies calculated from at least 5 different lung sections per individual mouse (See FIG. 26). Experimental Protocol: 250,000 C8161 metastatic melanoma cells were injected i. v. in Nude mice and lung colonization established. Following colonization, animals received by i.p. delivery either 3D1 monoclonal anti-Nodal antibody (100 μg/injection) or control IgG over the next 10 days, every other day (5 total injections).
To evaluate the in vivo effects of 3D1 mAb, a metastatic melanoma lung metastasis model was established by injecting 250,000 C8161 cells intravenously in Nude mice. After 4 days during which cells were allowed to colonize the lungs, mice were separated into treatment and control groups. The treatment group received a total of 500 μg of 3D1 mAb versus 500 μg of irrelevant isotype IgG in the control group administered over 10 days (alternate day intraperitoneal injection (IP) of 100 μg of either 3D1 mAb or IgG). At the end of the treatment period, mice were sacrificed and lungs harvested and processed for histologic evaluation of lung tumor burden and immunohistochemistry. Lung tumor burden was determined by evaluating the mean percentage of lung tissue occupied by C8161 in at least 4 separate fields at low power (10× objective) in lungs from at least 4 separate mice for each group and performed by 2 different observers. A final mean±SEM was calculated from the separate means determined by the individual observers.
Four micron thick, formalin fixed, paraffin embedded tissue sections were prepared and immunohistochemistry was carried out on a Dako Plus autostainer (DAKO, Inc, Carpenteria, Calif.). Following antigen retrieval and blocking steps, sections were incubated in primary antibody for 60 mins, followed by appropriate biotinylated secondary antibody (Biocare Medical, Conrad, Calif.), and then streptavidin-horseradish peroxidase (Thermo Scientific Lab Vision). Color was developed with 3,3′-diaminobenzidine substrate (Thermo Scientific Lab Vision) and sections were counterstained with hematoxylin (Biocare Medical, LLC). As a negative control, adjacent serial sections were incubated with species appropriate irrelevant IgG (Jackson ImmunoResearch Labs) at the same concentration as primary antibodies. Similar to the lung tumor burden evaluation described above, mean percentage of positive staining±SEM was determined by 2 different observers, each calculating the ratio of positive cells/total number of cells×100 for 4 separate high power fields (63× objective) from at least 2 different mice per group.

[2] = system: MDA-MB-231 breast cancer cells; experiment: Western blot analysis of MDA-MB-231 breast cancer cells treated with 3D1; format: cell-based, human; conditions: 72 hrs
Procedure: To determine the level of Nodal expression in brain, kidney, liver, pancreas, heart and skeletal muscle ready to use adult tissue extracts for Western blotting (WB) were purchased from Santa Cruz Biotechnology. For WB experiments of cell lines, whole cell lysates were prepared and quantified. SDS-PAGE gel electrophoresis and WB were performed using standard techniques. PVDF membranes were blocked in 5% non-fat milk or 5% BSA and antibodies diluted in either 5% non-fat milk or 5% bovine serum albumin overnight at 4° C., depending on the manufacturer's recommendations. Signal was detected using West Pico chemiluminescence reagent (Thermo Fisher) and exposure to x-ray film.

B1: 3D1: mouse monoclonal anti-Nodal antibody raised against hNodal(44-67); light chain SEQ ID NO:1, heavy chains SEQ ID NO:2 and 3 (protein)
light: DIKMTQSPASLSASVGETVTITCRASGNIHNYLAWYQQKQGKSPQLLVYNAKTLADGVPSRFSGSGSGTQYSLKINSLQPEDFGSYYCQHFWSTPHVRCWDQAGTETEAW
heavy 1: VKLVESGGGLVKPGGSLKLSCAASGFTFSSYAMSWVRQTPEKRLEWVASISSGGCTYYPDSVKGRFTISRDNARNILYLQMSSLRSEDTAMYYCARGSMITADGNSLLLCYGLLGSRNLXHR
heavy 2: VKLVESGGGLVQPGGSMKLSCVASGFTFRNYWMSWVRQSPEKGLEWVAEIRLKSDNYAARYAESVKGKFTISRDDSKSRLYLQMNSLRAEDTGIYYCTGIRRFAYWGQGTL
modifications: not fully specified; (120)..(120) Xaa can be any naturally occurring amino acid
With B1 the “mean percentage (±SEM) of cells staining for p27 in lung colonies” value ([1]; IHC, N=6) was 39.5%±17%, the “mean percentage (±SEM) of cells with nuclear localization of P-Smad2 in lung colonies” value ([1]; IHC, N=6) was 39±8.9% and the “percentage (+/−SEM) of cells staining for Cyclin B1 in lung colonies” value ([1]; IHC, N=6) was 25.9%±9.4%. The “lung tumor burden: mean percentage (±SEM) of lung tissue occupied by C8161 colonies” value ([1]; IP 100 μg alternate days over 10 days, N=8) was 25.8%±4.6%, the lung colonization [1] was “reduced lung colonization” and the lung colonization ([1]; listed as 3D1 mAb) was “significantly reduced”. The “Nodal expression and P-H3 by WB” value [2] was “noteworthy reduction”, the “reduction in Nodal” value ([2]; 4 μg/ml, vs IgG control) was 45% and the “reduction in the level of the proliferation/mitosis marker P-H3” value ([2]; 4 μg/ml, vs IgG control) was 49%.
